Laboratory results: patent publication US20170306033A1 (Amgen, published 2017)
Numbering of substitutions follows the chain as printed.

T1: human PAC1 receptor (human, UniProt P41586 21-468)
T1 sequence: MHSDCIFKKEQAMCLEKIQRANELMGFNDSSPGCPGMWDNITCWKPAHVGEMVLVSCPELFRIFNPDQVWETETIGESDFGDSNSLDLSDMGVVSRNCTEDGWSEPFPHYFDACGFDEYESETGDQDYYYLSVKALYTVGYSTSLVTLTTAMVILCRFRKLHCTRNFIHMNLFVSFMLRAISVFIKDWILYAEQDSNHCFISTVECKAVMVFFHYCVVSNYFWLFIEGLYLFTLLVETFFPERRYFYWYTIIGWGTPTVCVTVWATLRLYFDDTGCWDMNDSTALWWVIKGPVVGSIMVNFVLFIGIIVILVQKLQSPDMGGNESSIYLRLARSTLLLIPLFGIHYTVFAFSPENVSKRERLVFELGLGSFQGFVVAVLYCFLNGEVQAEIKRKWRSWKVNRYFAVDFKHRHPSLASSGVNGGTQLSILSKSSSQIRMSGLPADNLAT

B1: iPS:327270 (bispecific antibody, human IgG1, kappa, lambda, N297G)
light 1: EIVLTQSPATLSLSPGERATLSCRASQSVGRSLHWYQQKPGQAPRLLIKYASQSLSGIPARFSGSGSGTDFTLTISSLEPEDFAVYYCHQSSRLPFTFGPGTKVDIKRTVAAPSVFIFPPSDEQLKSGTASVVCLLNNFYPREAKVQWKVDNALQSGNSQESVTEQDSKDSTYSLESTLTLSKADYEKHKVYACEVTHQGLSSPVTKSFNRGEC
heavy 1: not shown
light 2: not shown
heavy 2: not shown
B2: iPS:327112 (bispecific antibody, human IgG1, kappa, lambda, N297G)
light 1: B1 light 1
heavy 1: not shown
light 2: not shown
heavy 2: not shown
B3: iPS:327275 (bispecific antibody, human IgG1, kappa, lambda, N297G)
light 1: B1 light 1 with P100E
heavy 1: not shown
light 2: not shown
heavy 2: EVQLVESGGGLVKPGGSLRLSCAASGFTFSNAWMSWVRQAPGKELEWVGRIKSKTDGGTTDYTAPVKGRFTISRDDSKNTLYLQMNSLKAEDTAVYYCTTDRTGYSISWSSYYYYYGMDVWGQGTTVTVSSASTKGPSVFPLAPSSKSTSGGTAALGCLVKDYFPEPVTVSWNSGALTSGVHTFPAVLQSSGLYSLESVVTVPSSSLGTQTYICNVNHKPSNTKVDKKVEPKSCDKTHTCPPCPAPELLGGPSVFLFPPKPKDTLMISRTPEVTCVVVDVSHEDPEVKFNWYVDGVEVHNAKTKPCEEQYGSTYRCVSVLTVLHQDWLNGKEYKCKVSNKALPAPIEKTISKAKGQPREPQVYTLPPSRKEMTKNQVSLTCLVKGFYPSDIAVEWESNGQPENNYKTTPPVLKSDGSFFLYSKLTVDKSRWQQGNVFSCSVMHEALHNHYTQKSLSLSPGK
B4: iPS:327272 (bispecific antibody, human IgG1, kappa, lambda, N297G)
light 1: DIQMTQSPSSLSASVGDRITITCRASQSISRYLNWYQQKPGKAPKLLIYAASSLQSGIPSRFSGSGSGTDFTLTINSLQPEDFATYFCQQSYSPPFTFGEGTKVDIKRTVAAPSVFIFPPSDEQLKSGTASVVCLLNNFYPREAKVQWKVDNALQSGNSQESVTEQDSKDSTYSLESTLTLSKADYEKHKVYACEVTHQGLSSPVTKSFNRGEC
heavy 1: not shown
light 2: not shown
heavy 2: B3 heavy 2
B5: iPS:327273 (bispecific antibody, human IgG1, kappa, lambda, N297G)
light 1: not shown
heavy 1: not shown
light 2: not shown
heavy 2: B3 heavy 2
B6: iPS:327274 (bispecific antibody, human IgG1, kappa, lambda, N297G)
light 1: DIQLTQSPSFLSASVGDRVTITCRASQSIGRSLHWYQQKPGKAPKLLIKYASQSLSGVPSRFSGSGSGTEFTLTISSLQPEDFATYYCHQSSRLPFTFGEGTKVDIKRTVAAPSVFIFPPSDEQLKSGTASVVCLLNNFYPREAKVQWKVDNALQSGNSQESVTEQDSKDSTYSLESTLTLSKADYEKHKVYACEVTHQGLSSPVTKSFNRGEC
heavy 1: not shown
light 2: not shown
heavy 2: B3 heavy 2
B7: iPS:327269 (bispecific antibody, human IgG1, kappa, lambda, N297G)
light 1: B6 light 1 with E100P
heavy 1: not shown
light 2: not shown
heavy 2: not shown

How the values were obtained:
human CGRP receptor = human CGRP receptor (human, UniProt Q16602 23-461; O60894 27-148); test: cell-based or functional assay
Sequence of human CGRP receptor (Q16602 23-461 limits assumed, chain 1 of 2): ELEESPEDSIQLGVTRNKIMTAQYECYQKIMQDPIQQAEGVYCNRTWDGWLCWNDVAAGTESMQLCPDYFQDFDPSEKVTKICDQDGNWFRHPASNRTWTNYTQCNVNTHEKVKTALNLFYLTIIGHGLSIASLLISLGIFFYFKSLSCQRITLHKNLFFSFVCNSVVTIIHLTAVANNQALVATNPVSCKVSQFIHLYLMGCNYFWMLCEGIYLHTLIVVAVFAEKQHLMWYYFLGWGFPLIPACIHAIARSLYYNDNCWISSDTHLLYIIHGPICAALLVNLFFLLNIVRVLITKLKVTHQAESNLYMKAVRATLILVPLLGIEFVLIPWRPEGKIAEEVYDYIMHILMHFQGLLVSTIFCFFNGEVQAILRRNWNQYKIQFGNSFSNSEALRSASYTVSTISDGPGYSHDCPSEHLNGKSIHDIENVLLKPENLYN
Sequence of human CGRP receptor (O60894 27-148 limits assumed, chain 2 of 2): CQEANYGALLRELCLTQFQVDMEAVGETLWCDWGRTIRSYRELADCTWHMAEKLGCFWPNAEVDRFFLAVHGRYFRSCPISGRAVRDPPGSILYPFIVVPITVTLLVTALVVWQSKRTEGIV

human PAC1 receptor = target: T1, human PAC1 receptor; test: cell-based or functional assay

Binder	% inhibition of human CGRPR (human CGRP receptor) [%]	% inhibition of human PAC1 (human PAC1 receptor) [%]
B1	71	82
B2	84	104
B3	85	86
B4	81	62
B5	81	10
B6	87	22
B7	79	8
